We go through one molecule from patent US20060142223A1.

The assay deals with human F0F1-ATP synthase (complex V) (human). As to the kind of experiment: cell-based or functional assay.

B1: mature CrATP6F polypeptide (Chlamydomonas reinhardtii ATPase 6 subunit of F0F1-ATP synthase with C-terminal FLAG epitope tag, after cleavage of the … (protein)
chain: STAAQVQSGATVNSLLLGIYRFWRSQAPMDKPHAPVDDRMLPAIVDASDNRAALGTWATALFCTILASNLLGLVPTNEAPTSGLGFATGLGVSVWATATTLGLYKLGFSFPGHFIPGGTPWPMAFIFVPLETISYTFRAVSLGVRLWVNMLAGHTLLHILTGMALALPFSLSFFAMVPATFAVACLLSALVGLEYLVAVLQSGVFSILSTVYVGEFNSVKLAGPLAKVVKKALDYKDDDDK
Take B1: the mitochondrial (oligomycin-sensitive) ATP synthesis in mutant (8993G) cybrids stably transfected with pCrA6F, against untransfected mutant cybrids was determined as 75%.
